# Source: publication PMC10702477
# B1: AtUGT78D2 (Arabidopsis thaliana) (protein)
# chain: MTKPSDPTRDSHVAVLAFPFGTHAAPLLTVTRRLASASPSTVFSFFNTAQSNSSLFSSGDEADRPANIRVYDIADGVPEGYVFSGRPQEAIELFLQAAPENFRREIAKAETEVGTEVKCLMTDAFFWFAADMATEINASWIAFWTAGANSLSAHLYTDLIRETIGVKEVGERMEETIGVISGMEKIRVKDTPEGVVFGNLDSVFSKMLHQMGLALPRATAVFINSFEDLDPTLTNNLRSRFKRYLNIGPLGLLSSTLQQLVQDPHGCLAWMEKRSSGSVAYISFGTVMTPPPGELAAIAEGLESSKVPFVWSLKEKSLVQLPKGFLDRTREQGIVVPWAPQVELLKHEATGVFVTHCGWNSVLESVSGGVPMICRPFFGDQRLNGRAVEVVWEIGMTIINGVFTKDGFEKCLDKVLVQDDGKKMKCNAKKLKELAYEAVSSKGRSSENFRGLLDAVVNII
# Assays:
# [1] = substrate: O=c1cc(-c2ccccc2)c2c(O)cc(O)cc2o1; assay: RP-HPLC product/acceptor peak ratio, Michaelis-Menten fit; type: biochemical, Arabidopsis thaliana; settings: 500 μM UDP-Glc, 50 mM TBT buffer at optimal pH, 293 K; product 7-O-Glc; 20.0 °C
# [2] = substrate: Cc1cc(=O)oc2cc(O)cc(O)c12; assay: as above; type: biochemical, Arabidopsis thaliana; settings: 500 μM UDP-Glc, 50 mM TBT buffer at optimal pH, 293 K; product 5-O-Glc; 20.0 °C
protein,measurement,setting,value
B1,Km,[1],28.9 ± 4.8 µM
same,kcat,[1],0.132 ± 0.00667 s⁻¹
same,Km,[2],34.4 ± 4.3 µM
same,kcat,[2],0.932 ± 0.04 s⁻¹
